Experiment: yeast display, Sf9 membrane polyspecificity reagent, FACS + sequencing; frameworks hold sequencing errors
Summary of the method: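 After 36–48 hours of galactose induction, yeast (Saccharomyces cerevisiae BJ5465) displaying a synthetic nanobody library were stained at 4 °C for 1 hour with 10% biotinylated, detergent-solubilized Sf9 membrane reagent. Streptavidin microbeads enriched the stained cells before FACS sorting into low and high (top ~1%) gates on anti-HA and streptavidin fluorescence. Each clone's polyreactivity label reflects its gate of origin.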

Sequence | polyreactivity (PSR sort gate)
QVQLVESGGGLVQAGGSLRLSCAASGSTFVVNAMGCYRQAPGKERELVAAITQSGGSTFYADSVKGRFTISRDNAKNTVYLQMNSLKPEDTAVYYWGQGTQVTVSS | low polyreactivity
QVQLVESGGCLVQAGGSLRLICAASGFIFTPYAMGWYRQAPGKERELVAAIRNSDGSTYYADSVKRRFTISRDTAKHSVYLQMNSLKPEDTAVFYCAKRYRGEPGGTYGYWGQGTQVNVSS | high polyreactivity
QVQLVESGGGLVQAGGSLRLSCAASGRTFLINAMGWYRQAPGKEWELVAAITQSGGSTYYADSVKGRFTISRDKAKNTVYLQLNSLKPEDTAVYYCAADVPGVYPYDYWGQGTQVTVSS | low polyreactivity
QVQLVESGGGLVQAGGSLRLSCAASGGTFFTNAMGWYRQAPGKERELVAVITGSGGRTYYADSVKGRFTISRDNAKNTVYLQMNSLKPEDTAVYYCAARGYSWGQGTQVTVSS | high polyreactivity
QVQLVESGGRLVQAGGSLRLSCAASGRIFGPYVMGWYRQAPGKERELFAAISTSGTYTYYADSVNGRFTISPDNAKNTVYLQMNSLKPEDTAVYYCAKRSGARHRLMDYWGQGTQVTVSS | low polyreactivity
QVQLVESGGGLVQAGGSLRLSCAASGFTFGYYVRGWYRQAPGKERELVAAITSGGSTYYADSVKGRFTISRDNAKNTVYLQMNSLKPEDTAVYYCAAFLGATYYYWGQGTQVTVSS | high polyreactivity
QVQLVESGGGLVQAGGTLRFSCAATGSIFDPYARGWYRQAPGKEREFVAAITYTGGDTHYADSVKGRFSISRDKAKNTVYLQLNSLKPEDSAVYYFAAVYYRGIQSYDYWGQGTQVTVSS | low polyreactivity
QVQLVESGGGLVQAGGSLRLSCAASGFIFYTYAIGWYRQAHGKERELVAAISRGGRTNYADSVKGRFTISRDNAKNSVYLQMNSLKPEDPAVYYCPSSYSHRYDYWGQGTQVTVSS | high polyreactivity
QVQLGESGGGLVQAGGSLRLSCAASGSTFAYNERGWYSQAPGHERELVADIRSGGNTNYADSVKGRFTISRDNAKNTVYLQMPSLKPEDTAVYYCATDGYRIDVYHPDYRYDYWGQGTQVTVSS | low polyreactivity
QVQLVESGGGLVQAGGSLRLSCAASGSTFYANAMGWYRQAPGKERELVAEISFSGASTFYADSVKGRFTISRDNAKNTVYLQMNSLKPEDTAVYYCATANPSVVGFDYWGQGTQVTVSS | low polyreactivity
QVQLVESGGGLVQAGGSLRLSCAASGRTFGENAMGWYRQAPGKERELVAAITGGDSTNYADSVKGRFTISRDNAKNTVYLQMNSLKPEDTAVYYCAAYGVKVLWTLTTYDYWGQGTQVTVSS | low polyreactivity
QVQLVESGGGLVQAGGSLRLSCAASGYTFATKVMGWYRQAPGKERELVATITGSGGSTYYADSVKGRLTISRDNAKNTVYLQMNSLTPEDTAVYNCAARLYGWYYGGYTRYDYWGQGTQVTVSS | high polyreactivity
QVQLVESGGGLVQAAGSLRVSCAASGSIFYSNVMGWYRTEPGKERELVARISDAGSTNYADSVKGRFTISRDNAKNTVYLQMNSLKPEDTAVYYCNARLVIYTYDYWGQGTQVTVSS | low polyreactivity
QVQLVESGGGLVQAGGSLRLSCSASGRTNWLNAMGLYRQAPGKERELVATISSSSGSTTYADSVKGRFTISRDNAKNTVYLQMNSLKPEDTAVYYCNVDDPFYSGVVEFDYWGQGTQVTVSS | low polyreactivity
QVQLVESGGGLVQAGGSLRLSCAASGSTFFTNAMGWYRQAPGKERELVAAITINDGSTFYADSVKGRFTISRDNAKNTVYLQMNSLKPEDTAVYYCNADGVDLYDYWGQGTQVTVSS | low polyreactivity
QVQLVESGGGLVQAGGSIRLSCAASGRTFYLYAMGWYRQAPGKERELVAVISRRGGRTYYADSVKGRFTISRDNSKNTVYLQMNSLKPEDTAVYYCAVYSFGMGYWGQGTQVTVSS | high polyreactivity
QVQLVESGGGLVQAGGSLRLSCAASGFTFSLYAMGWYRQAPGKERELVARISDSGGGTYYADSVKGRFTISRDNAKNTVYLQMNSLKPEDTAVYYCAAVSVWYVTSTSYRYWRYDYWGQGTQVTVSS | high polyreactivity
QVQLVESGGGLVQAGGSLRLSCAASGITFPGYAMGWYRQAPGKERELVAAISTSGGSTYYADSVKGRFTISRDNAKNTVYLQMIRLKPEDTAVYYCAADSFVTSFHWRFDYWGQGTQVTVSS | low polyreactivity
QVQLVESGGGLVQAGGSLRLSCAASGSIFPRYAMGWYRQAPGKERELVAAITNGGSTDYADSVKGRFTISRDNAKKTVYLLMNSLKPEDTAGYYCAADLAVGIYPEDGDYWGQGTKVTVSS | low polyreactivity
HVQLQESGGGLVQAGGSLRLSCAASGNISNSRNMGWYRQAPGKERELVAAIDRGAITYYADSVKGRFTISRDNAKNTVYLQIYSLKPEDTAVYYCAAEYHDRWDHRYWGQGTQVTVSS | high polyreactivity
QVQLVESGGGLVQAGGSLRLSCAASGFIFVYGNVMGWYRQAPGKERELVASITSDGGSTNYADSVKGRFTISRDNAKNTVYLQMNSLKPEDTAVYYCNADVPRGFGGEYDYWGQGTQVTVSS | low polyreactivity
QVQLVESGGGLVQAGGSLRLSCAASGFTFYLYAMGWYRQAPGKERELVAAINSGSSTYYADSVKGRFTISRDNAKNTVYLQMNSLNPEDTAVYYCATDTDRTMDYWGQGTQVTVSS | low polyreactivity

Sequence | polyreactivity (PSR sort gate)
QVQLVESGGGLVQAGGSLRLSCAASGSTIVYYAMGWYRQAPGKERELVARITWSGGRTYADSVKGRFTISRDNAKNTVYLQMNSLKPEDTAVYYCNADPGDNTTEYDYWGQGTQVTVSS | low polyreactivity
QVQLVESGGGLVQSGGSLRLTCAASGTLFYAMGWSRQAPGKERELVATITQRGGSTYYADSVKGRFTLSRDNAKNTVYLQMNSLKPEDTAVYYCAAAIYRASRRRTSYSYDYCGQGTQVTVSS | high polyreactivity
QVQLVETGGGLVQAGGSLRLSCAASGRTLIGNAMGWYRQAPGKERELVAAISFRGTRTYYADSVKGRFTISRDNAKNTFYLQMNSLKPEDTAVYYCNVYTRDRGYDYWGQGTQVTVSS | high polyreactivity
QVQLVESGGGLVQAGGTLRLSCAASGRIFRYNGMGWYRQAPVKERELVAGINWIGGRTYYADSVKGRFTISRDNAKNTVYLQMNSLKPEDTAVYYCAAYWYYIKATTDSDARFDYWGQGTQVTVSS | high polyreactivity
QVQLVESGGGLVQAGGSLRLSCAASGRTFPAYAMGWYRQAPGKERELVAAISSGTSTYADSVKGRFTISRDNAKNTVYLQMNSLKPEDTAVYYCAAGYDRVHSVAGYDYWGQGTQVTVSS | low polyreactivity
QVQLVESGGGLVQAGGSLRLSCAASGFIFFINDMGWYRQAPGTERELVAAISWSGGSTYYADSVKGRFTISRDNAKNTVYLQMNSLKPEDTAVYYCNTDVPTAQYDYWGQGTQVTVSS | low polyreactivity
QVQLVESGGGLVHAGGSLRLSCAASGFTFGYYALGWYRQAPGKERELVASISRSGGSTNYADSVKGRFTISRDNAKYTVYFQMNRLKPEDTAVYYCNKRVNTYRSGSRRYDYWGQGTQVTVSS | high polyreactivity
QVQLVESGGGLVQAGGSLRLSCAASGSIFPYNAMGWYRPAPGKERELVATISSGGSTNYADSVKGRFTISRDNAMNTVYLQMNIMKPEDTAVYYCAKETIGQDPVSGAWARHEYDYWGQGTQVTVSS | low polyreactivity
QVQLVESGGGLVQAGGSLRLSCAASGNTIIRYAIAWYRQAPGKERELVAAISYSGGRTYYADSVKGRFTISRDNANNTVYLQMNSLKPEDTAVYYCNAASRYGGDYWGQGTQVTVSS | high polyreactivity
QVQLVESGGGLVQTGGSLRLSCASSGRIFFDNAMGWYSQAPGKERELVAGIDSGGSTYYADSVKGRFSISRDNAKNTVYLQMNRLKPEDTAVYYCNADYPPSTQSPLLQSYDYWGHGTQVTVSS | low polyreactivity
QVQLVESGRGLVQAGGSLRLRCAASGFTIYPYVMGWYRQAPGKERELVAAISWSGGRTSYADSVKGRFTISRDNAKNTVYLQMNSLKPEDTAVYYCATRPSHVLSEMDYWGQGTQVTVSS | low polyreactivity
QVQLGESGGGLVQAGGSLRLSCAASGSIFFLYAMGWYRQAPGKERELVAAISLSTGNTYYADSVKGRFTISRDNAKNTVYVQKNSLKPEDTAVYYCAAEDYWSAYYWGQGTQVTVSS | high polyreactivity
QVQLVESGGGLVQAGGSLRLSCAASGLIFAGYAKGWYRQAPGKERELVAAISTSGGRTYYADSVKGRFTISRDNAKNTVYLQMNSLKPEDTAVYYCAAYPVHGKTQELAKEDYWGQGTQVTVSS | high polyreactivity
QVQLVESGGGLVQAGGSLRLSCAASGFIFANYAKGWYRPAPGKERELVAAISSGGITYYADSVKGRFTISRDNAKNTVYLQMNSRKPEDTAVYYCACDVRYQDRSGEYHHWDGDYWGQGTQVTVTS | low polyreactivity
QVQLVESGGGLVQAGGSLRLSCAASGITFWNNAMGWYRQAPGKERELVATISSNGGRTYYADSVKGRFTISRDNAKNSVYLQMNSLKPEDTAVYYCNAARRAYGYNYWGQGTQVTVSS | low polyreactivity
QVQLVESGGGLVQAGGSLRLSCAASGFIFNHYAMGWYRQAPGKEREFVAAISWSGTRTYYADSVKGRFTISRDNAKNTVYLQMNSLKPEDTSVYYCAADVWGPYDYWGQGTQLTVSS | low polyreactivity
QVQLVESGGGLVQAGGSLRLSCAASGRIFVTNDMGWYRQAPGKERELVAAISLSSGSTYYADSVKGRFTISRDNAKNTVYLQMNSLKPEDTAVYYCAADIFPFGYFLFRHGYWGQGTQVTVSS | low polyreactivity
QVQLVESGGGLVQAGGSLRLSCAASGSTFSHNAMGWYRQAPGKERELVAAISWSGVGTYADSVKGRFTISRDNAKNTVYLQMNSLKPEDTAVYYCNKVSYPSTSSSWFDYWGQGTQVTVSS | low polyreactivity
QVQLVESGGGLVQAGGSLRLSCASSGSIFPRYAMGSYRPAPGKERELVAAISQSGGRTYYADSVKGRFTISRDNAKNTVYLQMNSMKPEDTAVYYCAALVSGEYDYWGQGTQVTVSS | high polyreactivity
QVQLVESGGGLVQAGGSLRLSCAASGRTLARNAMGWDRQAPGKEWELVASINGRTTRTYYADSVKGRFTISRDNANNTVYLQRNSLKPEDTAVYYCAADPPGYVYGKRYYWGQGTQVTVSS | high polyreactivity
QVHRGETGGGLVQAGGSLRLSCSASGLSFPHYAMGWYRQAPGKERDLVADINLSGGSNTYYADSVKGRFTISRDNAKNTVYLMMNSLKPEDTPVYDCNAVSWENWYHIMDYWGQGTQVTVSS | high polyreactivity

Reference: the nanobody polyreactivity screen of Harvey et al. (2022)
